# From patent US20130045895A1 (published 2013)
# Biological target: T1, Human Serum Albumin (human, UniProt P02768 25-609)
# T1 construct: also called HSA; antigen
# Test: BIAcore, supernatant over immobilised HSA (6036 RU);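 further: expressed culture supernatants of mutant clones diluted 1:1 in HBS-EP buffer and screened for binding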
# Protocol: Screening of expressed supernatants for Protein L and HSA binding: Mutant clones were picked into a 96 well plate format and expressed in 1 mL 2×TY 0.1 mg/ml carbenicillin supplemented with OnEx solutions 1, 2 and 3 according to the manufacturer's instructions (Novagen). Cultures were grown at 30° C. for 3 days at 950 rpm high humidity in an InforsHT shaker. Cells were pelleted by centrifugation (4.5 k in a bench top Sorvall centrifuge for 30 mins) and 75 μL of the supernatant added to an equal volume of HBS-EP buffer (GE Healthcare).
# T1 sequence (P02768 25-609 limits assumed): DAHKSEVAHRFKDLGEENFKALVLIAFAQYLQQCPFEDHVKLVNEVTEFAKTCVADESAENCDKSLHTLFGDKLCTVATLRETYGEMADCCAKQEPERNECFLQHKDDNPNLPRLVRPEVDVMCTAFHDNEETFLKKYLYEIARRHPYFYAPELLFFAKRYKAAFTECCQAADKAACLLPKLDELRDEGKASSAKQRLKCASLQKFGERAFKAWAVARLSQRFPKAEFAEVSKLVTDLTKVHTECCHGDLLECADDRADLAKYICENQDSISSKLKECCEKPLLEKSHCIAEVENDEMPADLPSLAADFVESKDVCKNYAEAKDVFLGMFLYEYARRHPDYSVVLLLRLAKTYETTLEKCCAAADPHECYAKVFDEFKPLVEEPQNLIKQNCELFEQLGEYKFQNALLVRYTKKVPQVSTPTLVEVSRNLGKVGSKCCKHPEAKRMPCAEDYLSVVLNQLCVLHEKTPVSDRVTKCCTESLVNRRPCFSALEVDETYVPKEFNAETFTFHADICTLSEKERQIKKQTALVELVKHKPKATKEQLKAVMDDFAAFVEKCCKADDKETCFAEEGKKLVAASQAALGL
row,Binder,binding result
1,DOM7h-14 A43C (other) VL: DIQMTQSPSSLSASVGDRVTITCRASQWIGSQLSWYQQKPGKCPKLLIMWRSSLQSGVPSRFSGSGSGTDFTLTISSLQPEDFATYYCAQGAALPRTFGQGTKVEIKR,binds
2,DOM7h-14 A43Y (other) VL: DIQMTQSPSSLSASVGDRVTITCRASQWIGSQLSWYQQKPGKYPKLLIMWRSSLQSGVPSRFSGSGSGTDFTLTISSLQPEDFATYYCAQGAALPRTFGQGTKVEIKR,binds
3,DOM7h-14 P44C (other) VL: DIQMTQSPSSLSASVGDRVTITCRASQWIGSQLSWYQQKPGKACKLLIMWRSSLQSGVPSRFSGSGSGTDFTLTISSLQPEDFATYYCAQGAALPRTFGQGTKVEIKR,binds
4,DOM7h-14 P44M (other) VL: DIQMTQSPSSLSASVGDRVTITCRASQWIGSQLSWYQQKPGKAMKLLIMWRSSLQSGVPSRFSGSGSGTDFTLTISSLQPEDFATYYCAQGAALPRTFGQGTKVEIKR,binds
5,DOM7h-14 A43M (other) VL: DIQMTQSPSSLSASVGDRVTITCRASQWIGSQLSWYQQKPGKMPKLLIMWRSSLQSGVPSRFSGSGSGTDFTLTISSLQPEDFATYYCAQGAALPRTFGQGTKVEIKR,binds
6,DOM7h-14 P44H (other) VL: DIQMTQSPSSLSASVGDRVTITCRASQWIGSQLSWYQQKPGKAHKLLIMWRSSLQSGVPSRFSGSGSGTDFTLTISSLQPEDFATYYCAQGAALPRTFGQGTKVEIKR,binds
7,DOM7h-14 P44K (other) VL: DIQMTQSPSSLSASVGDRVTITCRASQWIGSQLSWYQQKPGKAKKLLIMWRSSLQSGVPSRFSGSGSGTDFTLTISSLQPEDFATYYCAQGAALPRTFGQGTKVEIKR,binds
8,DOM7h-14 P44E (other) VL: DIQMTQSPSSLSASVGDRVTITCRASQWIGSQLSWYQQKPGKAEKLLIMWRSSLQSGVPSRFSGSGSGTDFTLTISSLQPEDFATYYCAQGAALPRTFGQGTKVEIKR,binds
9,DOM7h-14 A43S (other) VL: DIQMTQSPSSLSASVGDRVTITCRASQWIGSQLSWYQQKPGKSPKLLIMWRSSLQSGVPSRFSGSGSGTDFTLTISSLQPEDFATYYCAQGAALPRTFGQGTKVEIKR,binds
10,DOM7h-14 P44G (other) VL: DIQMTQSPSSLSASVGDRVTITCRASQWIGSQLSWYQQKPGKAGKLLIMWRSSLQSGVPSRFSGSGSGTDFTLTISSLQPEDFATYYCAQGAALPRTFGQGTKVEIKR,binds
11,DOM7h-14 P44I (other) VL: DIQMTQSPSSLSASVGDRVTITCRASQWIGSQLSWYQQKPGKAIKLLIMWRSSLQSGVPSRFSGSGSGTDFTLTISSLQPEDFATYYCAQGAALPRTFGQGTKVEIKR,binds
12,DOM7h-14 A43F (other) VL: DIQMTQSPSSLSASVGDRVTITCRASQWIGSQLSWYQQKPGKFPKLLIMWRSSLQSGVPSRFSGSGSGTDFTLTISSLQPEDFATYYCAQGAALPRTFGQGTKVEIKR,binds
13,DOM7h-14 A43I (other) VL: DIQMTQSPSSLSASVGDRVTITCRASQWIGSQLSWYQQKPGKIPKLLIMWRSSLQSGVPSRFSGSGSGTDFTLTISSLQPEDFATYYCAQGAALPRTFGQGTKVEIKR,binds
14,DOM7h-14 P44A (other) VL: DIQMTQSPSSLSASVGDRVTITCRASQWIGSQLSWYQQKPGKAAKLLIMWRSSLQSGVPSRFSGSGSGTDFTLTISSLQPEDFATYYCAQGAALPRTFGQGTKVEIKR,binds
15,DOM7h-14 P44Q (other) VL: DIQMTQSPSSLSASVGDRVTITCRASQWIGSQLSWYQQKPGKAQKLLIMWRSSLQSGVPSRFSGSGSGTDFTLTISSLQPEDFATYYCAQGAALPRTFGQGTKVEIKR,binds
16,DOM7h-14 A43V (other) VL: DIQMTQSPSSLSASVGDRVTITCRASQWIGSQLSWYQQKPGKVPKLLIMWRSSLQSGVPSRFSGSGSGTDFTLTISSLQPEDFATYYCAQGAALPRTFGQGTKVEIKR,binds
17,DOM7h-14 A43L (other) VL: DIQMTQSPSSLSASVGDRVTITCRASQWIGSQLSWYQQKPGKLPKLLIMWRSSLQSGVPSRFSGSGSGTDFTLTISSLQPEDFATYYCAQGAALPRTFGQGTKVEIKR,binds
18,DOM7h-14 P44L (other) VL: DIQMTQSPSSLSASVGDRVTITCRASQWIGSQLSWYQQKPGKALKLLIMWRSSLQSGVPSRFSGSGSGTDFTLTISSLQPEDFATYYCAQGAALPRTFGQGTKVEIKR,binds

row,Binder,binding result
1,DOM7h-14 P44D (other) VL: DIQMTQSPSSLSASVGDRVTITCRASQWIGSQLSWYQQKPGKADKLLIMWRSSLQSGVPSRFSGSGSGTDFTLTISSLQPEDFATYYCAQGAALPRTFGQGTKVEIKR,binds
2,DOM7h-14 A43P (other) VL: DIQMTQSPSSLSASVGDRVTITCRASQWIGSQLSWYQQKPGKPPKLLIMWRSSLQSGVPSRFSGSGSGTDFTLTISSLQPEDFATYYCAQGAALPRTFGQGTKVEIKR,binds
3,DOM7h-14 Q38C (other) VL: DIQMTQSPSSLSASVGDRVTITCRASQWIGSQLSWYQCKPGKAPKLLIMWRSSLQSGVPSRFSGSGSGTDFTLTISSLQPEDFATYYCAQGAALPRTFGQGTKVEIKR,binds
4,DOM7h-14 P44W (other) VL: DIQMTQSPSSLSASVGDRVTITCRASQWIGSQLSWYQQKPGKAWKLLIMWRSSLQSGVPSRFSGSGSGTDFTLTISSLQPEDFATYYCAQGAALPRTFGQGTKVEIKR,binds
5,DOM7h-14 A43E (other) VL: DIQMTQSPSSLSASVGDRVTITCRASQWIGSQLSWYQQKPGKEPKLLIMWRSSLQSGVPSRFSGSGSGTDFTLTISSLQPEDFATYYCAQGAALPRTFGQGTKVEIKR,binds
6,DOM7h-14 P44V (other) VL: DIQMTQSPSSLSASVGDRVTITCRASQWIGSQLSWYQQKPGKAVKLLIMWRSSLQSGVPSRFSGSGSGTDFTLTISSLQPEDFATYYCAQGAALPRTFGQGTKVEIKR,binds
7,DOM7h-14 P44R (other) VL: DIQMTQSPSSLSASVGDRVTITCRASQWIGSQLSWYQQKPGKARKLLIMWRSSLQSGVPSRFSGSGSGTDFTLTISSLQPEDFATYYCAQGAALPRTFGQGTKVEIKR,binds
8,DOM7h-14 A43R (other) VL: DIQMTQSPSSLSASVGDRVTITCRASQWIGSQLSWYQQKPGKRPKLLIMWRSSLQSGVPSRFSGSGSGTDFTLTISSLQPEDFATYYCAQGAALPRTFGQGTKVEIKR,binds
9,DOM7h-14 P44T (other) VL: DIQMTQSPSSLSASVGDRVTITCRASQWIGSQLSWYQQKPGKATKLLIMWRSSLQSGVPSRFSGSGSGTDFTLTISSLQPEDFATYYCAQGAALPRTFGQGTKVEIKR,binds
10,DOM7h-14 A43G (other) VL: DIQMTQSPSSLSASVGDRVTITCRASQWIGSQLSWYQQKPGKGPKLLIMWRSSLQSGVPSRFSGSGSGTDFTLTISSLQPEDFATYYCAQGAALPRTFGQGTKVEIKR,binds
11,DOM7h-14 A43H (other) VL: DIQMTQSPSSLSASVGDRVTITCRASQWIGSQLSWYQQKPGKHPKLLIMWRSSLQSGVPSRFSGSGSGTDFTLTISSLQPEDFATYYCAQGAALPRTFGQGTKVEIKR,binds
12,DOM7h-14 P44S (other) VL: DIQMTQSPSSLSASVGDRVTITCRASQWIGSQLSWYQQKPGKASKLLIMWRSSLQSGVPSRFSGSGSGTDFTLTISSLQPEDFATYYCAQGAALPRTFGQGTKVEIKR,binds
13,DOM7h-14 A43N (other) VL: DIQMTQSPSSLSASVGDRVTITCRASQWIGSQLSWYQQKPGKNPKLLIMWRSSLQSGVPSRFSGSGSGTDFTLTISSLQPEDFATYYCAQGAALPRTFGQGTKVEIKR,binds
14,DOM7h-14 Q38A (other) VL: DIQMTQSPSSLSASVGDRVTITCRASQWIGSQLSWYQAKPGKAPKLLIMWRSSLQSGVPSRFSGSGSGTDFTLTISSLQPEDFATYYCAQGAALPRTFGQGTKVEIKR,binds
15,DOM7h-14 Q38D (other) VL: DIQMTQSPSSLSASVGDRVTITCRASQWIGSQLSWYQDKPGKAPKLLIMWRSSLQSGVPSRFSGSGSGTDFTLTISSLQPEDFATYYCAQGAALPRTFGQGTKVEIKR,binds
16,DOM7h-14 P44N (other) VL: DIQMTQSPSSLSASVGDRVTITCRASQWIGSQLSWYQQKPGKANKLLIMWRSSLQSGVPSRFSGSGSGTDFTLTISSLQPEDFATYYCAQGAALPRTFGQGTKVEIKR,binds
17,DOM7h-14 A43T (other) VL: DIQMTQSPSSLSASVGDRVTITCRASQWIGSQLSWYQQKPGKTPKLLIMWRSSLQSGVPSRFSGSGSGTDFTLTISSLQPEDFATYYCAQGAALPRTFGQGTKVEIKR,binds
18,DOM7h-14 A43K (other) VL: DIQMTQSPSSLSASVGDRVTITCRASQWIGSQLSWYQQKPGKKPKLLIMWRSSLQSGVPSRFSGSGSGTDFTLTISSLQPEDFATYYCAQGAALPRTFGQGTKVEIKR,binds
